Results on five molecules are retold here after US20260266848A1, “COMPOSITIONS AND METHODS FOR DIAGNOSING AND TREATING DYSTONIA” (Duke University, priority 2023, published 2026).

B1: Mvd (protein, UniProt P53602 2-400, looked up)
Diphosphomevalonate …: ASEKPLAAVTCTAPVNIAVIKYWGKRDEELVLPINSSLSVTLHQDQLKTTTTAVISKDFTEDRIWLNGREEDVGQPRLQACLREIRCLARKRRNSRDGDPLPSSLSCKVHVASVNNFPTAAGLASSAAGYACLAYTLARVYGVESDLSEVARRGSGSACRSLYGGFVEWQMGEQADGKDSIARQVAPESHWPELRVLILVVSAEKKLTGSTVGMRASVETSPLLRFRAESVVPARMAEMARCIRERDFPSFAQLTMKDSNQFHATCLDTFPPISYLNAISWRIIHLVHRFNAHHGDTKVAYTFDAGPNAVIFTLDDTVAEFVAAVWHGFPPGSNGDTFLKGLQVRPAPLSAELQAALAMEPTPGGVKYIIVTQVGPGPQILDDPCAHLLGPDGLPKPAA
B2: Dhx15 (protein, UniProt O35286 1-795, looked up)
ATP-dependent RNA helicase …: MSKRHRLDLGEDYPSGKKRAGTDGKDRERDRDREDRSKDRDRERDRGDREREREKEKEKELRASTNAMLISAGLPPLKASHSAHSTHSAHSTHSTHSAHSTHTGHTGHTSLPQCINPFTNLPHTPRYYDILKKRLQLPVWEYKDRFTDILVRHQSFVLVGETGSGKTTQIPQWCVEYMRSLPGPKRGVACTQPRRVAAMSVAQRVADEMDVMLGQEVGYSIRFEDCSSAKTILKYMTDGMLLREAMNDPLLERYGVIILDEAHERTLATDILMGVLKEVVRQRSDLKVIVMSATLDAGKFQIYFDNCPLLTIPGRTHPVEIFYTPEPERDYLEAAIRTVIQIHMCEEEEGDLLLFLTGQEEIDEACKRIKREVDDLGPEVGDIKIIPLYSTLPPQQQQRIFEPPPPKKQNGAIGRKVVVSTNIAETSLTIDGVVFVIDPGFAKQKVYNPRIRVESLLVTAISKASAQQRAGRAGRTRPGKCFRLYTEKAYKTEMQDNTYPEILRSNLGSVVLQLKKLGIDDLVHFDFMDPPAPETLMRALELLNYLAALNDDGDLTELGSMMAEFPLDPQLAKMVIASCDYNCSNEVLSITAMLSVPQCFVRPTEAKKAADEAKMRFAHIDGDHLTLLNVYHAFKQNHESVQWCYDNFINYRSLMSADNVRQQLSRIMDRFNLPRRSTDFTSRDYYINIRKALVTGYFMQVAHLERTGHYLTVKDNQVVQLHPSTVLDHKPEWVLYNEFVLTTKNYIRTCTDIKPEWLVKIAPQYYDMSNFPQCEAKRQLDRIIAKLQSKEYSQY
B3: Ap3d1 (protein, UniProt O54774 2-1199, looked up)
AP-3 complex subunit delta-1: ALKMVKGSIDRMFDKNLQDLVRGIRNHKEDEAKYISQCIDEIKQELKQDNIAVKANAVCKLTYLQMLGYDISWAAFNIIEVMSASKFTFKRVGYLAASQCFHEGTDVIMLTTNQIRKDLSSPSQYDTGVALTGLSCFVTPDLARDLANDIMTLMSHTKPYIRKKAVLIMYKVFLKYPESLRPAFPRLKEKLEDPDPGVQSAAVNVICELARRNPKNYLSLAPLFFKLMTSSTNNWVLIKIIKLFGALTPLEPRLGKKLIEPLTNLIHSTSAMSLLYECVNTVIAVLISLSSGMPNHSASIQLCVQKLRILIEDSDQNLKYLGLLAMSKILKTHPKSVQSHKDLILQCLDDKDESIRLRALDLLYGMVSKKNLMEIVKKLMTHVDKAEGTTYRDELLTKIIDICSQSNYQHITNFEWYISILVELTRLEGTRHGHLIAAQMLDVAIRVKAIRKFAVSQMSSLLDSAHLVASSTQRNGICEVLYAAAWICGEFSEHLQGPQQTLEAMLRPKVTTLPGHIQAVYVQNVVKLYASILQQKEQAADTEAAQEVTQLLVERLPQFVQSADLEVQERASCILQLVKHVQKLQAKGVPVAEEVSALFAGELNPVAPKAQKKVPVPEGLDLDAWINEPPSDSESEDEKPKAIFHEEEPRHTRRRQPEEDEEELARRREARKQEQANNPFYIKSSPSPQKRYQDAPGVEHIPVVQIDLSVPLKVPGMPMSDQYVKLEEQRRHRQRLEKDKKRKKKEKGKRRHSSLPTESDEDIAPAQRVDIITEEMPENALPSDEDDKDPNDPYRALDIDLDKPLADSEKLPVQKHRNAEAVKSPEKEGVLGVEKKSKKPKKKEKKTKEREREKKDKKGEDLDFWLSTTPPPAAAPIPAPSTEELAASTITSPKDECEVLKGEEEDHVDHDQERKSSRHKKKKHRKEKEKEERPRDKKKAKKKQVAPLENGAAAEEEEEPIPPMSSYCLLAESPYIKVTYDIQASLQKDSQVTVSIILENQSSSFLKNMELNVLDSLNTKMTRPEGSSVHDGVPVPFQLPPGVSNEAQFVFTIQSIVMAQKLKGTLSFIAKDDEGATHEKLDFRLHFSCSSYLITTPCYSDAFAKLLESGDLSMNSIKVDGISMSFQNLLAKICFYHHFSVVERVDSCASMYSRSIQGHHVCLLVKKGESSVSVDGKCSDATLLSSLLEEMKTTLAQC
B4: Lmna (protein, UniProt P48678 1-662, looked up)
Prelamin-A/C: METPSQRRATRSGAQASSTPLSPTRITRLQEKEDLQELNDRLAVYIDRVRSLETENAGLRLRITESEEVVSREVSGIKAAYEAELGDARKTLDSVAKERARLQLELSKVREEFKELKARNTKKEGDLLAAQARLKDLEALLNSKEAALSTALSEKRTLEGELHDLRGQVAKLEAALGEAKKQLQDEMLRRVDAENRLQTLKEELDFQKNIYSEELRETKRRHETRLVEIDNGKQREFESRLADALQELRAQHEDQVEQYKKELEKTYSAKLDNARQSAERNSNLVGAAHEELQQSRIRIDSLSAQLSQLQKQLAAKEAKLRDLEDSLARERDTSRRLLAEKEREMAEMRARMQQQLDEYQELLDIKLALDMEIHAYRKLLEGEEERLRLSPSPTSQRSRGRASSHSSQSQGGGSVTKKRKLESSESRSSFSQHARTSGRVAVEEVDEEGKFVRLRNKSNEDQSMGNWQIRRQNGDDPLMTYRFPPKFTLKAGQVVTIWASGAGATHSPPTDLVWKAQNTWGCGSSLRTALINSTGEEVAMRKLVRSLTMVEDNEDDDEDGEELLHHHRGSHCSGSGDPAEYNLRSRTVLCGTCGQPADKAAGGAGAQVGGSISSGSSASSVTVTRSFRSVGGSGGGSFGDNLVTRSYLLGNSSPRSQSSQNC
B5: Cd276 (protein, UniProt Q8VE98 29-316, looked up)
CD276 antigen: VEVQVSEDPVVALVDTDATLRCSFSPEPGFSLAQLNLIWQLTDTKQLVHSFTEGRDQGSAYSNRTALFPDLLVQGNASLRLQRVRVTDEGSYTCFVSIQDFDSAAVSLQVAAPYSKPSMTLEPNKDLRPGNMVTITCSSYQGYPEAEVFWKDGQGVPLTGNVTTSQMANERGLFDVHSVLRVVLGANGTYSCLVRNPVLQQDAHGSVTITGQPLTFPPEALWVTVGLSVCLVVLLVALAFVCWRKIKQSCEEENAGAEDQDGDGEGSKTALRPLKPSENKEDDGQEIA

The subject of one test is WT MEF EVs. The test is described as follows: Quantitative LC-MS/MS proteomics of EVs from ISRIB-treated WT MEF cultures. The format is cell-based, mouse. More on the design: key to ISRIB and DYT Parallel Direction / ISRIB and DYT Parallel Direction, Ctdsp1 / ISRIB and DYT Parallel Direction, Pcdh19 / ISRIB and DYT Parallel Direction, Tspan7 / ISRIB and DYT Parallel Direction, Myo1e / ISRIB and DYT Parallel Direction, Plpp3 / ISRIB and DYT Parallel Direction, Sh3bp4 / ISRIB and DYT Parallel Direction, Dnajc7 / ISRIB and DYT Parallel Direction, Drg1 / ISRIB and DYT Parallel Direction, Maea: YES = protein abundance effect similar to DYT/WT. Particulars: EV protein abundance, ISRIB-treated WT vs WT.
For the molecule B1, the “WT + ISRIB/WT Cohen's d” value was −0.34.
With B2, the “WT + ISRIB/WT Cohen's d” value was −1.19.
Still for that read-out and setting: under B3 stands −0.19; under B4, −0.19; under B5, −2.07.

Staying with this test, now noted: EV protein abundance, WT + ISRIB vs WT, direction compared with DYT/WT.
In the case of B1, the “ISRIB and DYT Parallel Direction” value is given as “YES”.
Turning to B2, the “ISRIB and DYT Parallel Direction” value was “YES”.
For the molecule B3, the “ISRIB and DYT Parallel Direction” value is on record as “YES”.
On to B4, for which the “ISRIB and DYT Parallel Direction” value was “YES”.
As for B5, the “ISRIB and DYT Parallel Direction” value was “YES”.

The next test relates to DYT-TOR1A MEF EVs. The test is described as follows: Quantitative LC-MS/MS proteomics of EVs from drug-treated DYT-TOR1A MEF cultures (ritonavir, salubrinal). It counts as cell-based, mouse. More on the design: key to RTV Corrective Direction / RTV Corrective Direction, Grwd1 / RTV Corrective Direction, Srrm2 / RTV Corrective Direction, Rbm17 / RTV Corrective Direction, Dcaf8 / RTV Corrective Direction, Edil3 / RTV Corrective Direction, Timp3 / RTV Corrective Direction, Heatr3 / RTV Corrective Direction, Brd4 / RTV Corrective Direction, P3h4 / RTV Corrective Direction, Pacsin3 / RTV Corrective Direction, Naa50 / RTV Corrective Direction, Lpar6 / RTV Corrective Direction, Ndrg1 / RTV Corrective Direction, Kntc1 / RTV Corrective Direction, Cdk11b / RTV Corrective Direction, Sumo1 / RTV Corrective Direction, Lsm4 / RTV Corrective Direction, Hmga2 / RTV Corrective Direction, Cstf1 / RTV Corrective Direction, Tes / RTV Corrective Direction, Sbno1 / RTV Corrective Direction, Unc119b / RTV Corrective Direction, Cfdp1 / RTV Corrective Direction, Sec61b: YES = protein abundance effect opposite to DYT/WT. Particulars: EV protein abundance, DYT + RTV (ritonavir) vs DYT, direction compared with DYT/WT.
On to B1, for which the “RTV Corrective Direction” value was “YES”.
B2: the “RTV Corrective Direction” value is on record as “YES”.
Take B3: the “RTV Corrective Direction” value is “YES”.
In the case of B4, the “RTV Corrective Direction” value was “YES”.
In the case of B5, the “RTV Corrective Direction” value is given as “YES”.

Staying with this test, now noted: EV protein abundance, ritonavir (RTV)-treated DYT vs DYT.
In the case of B1, the “DYT + RTV/DYT Cohen's d” value was found to be 4.38.
Regarding B2, the “DYT + RTV/DYT Cohen's d” value came to 4.59.
Still for that read-out and setting: under B3 stands 3.27; under B4, 3.97.
For B5, the “DYT + RTV/DYT Cohen's d” value worked out at 1.75.
